One test deals with T1, GST-huBDNFpro4.
T1 construct: Printed on the sheet without the E ('GST-huBDNFpro4'); also called E4; GST-human proBDNF-E4 peptide
T1 peptide: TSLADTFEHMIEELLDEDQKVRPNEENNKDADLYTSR
Kind of test: ELISA, GST fusion protein coated, absorbance at 450 nm. An excerpt:
(§1) The five peptides were fused with GST and expressed, and then purified. The binding of antibodies 1D3 and 2H8 was detected by ELISA.

The target of test [1] is T2, human proBDNF precursor protein (human, UniProt P23560 19-247).
T2 construct: also called human proBDNF precursor recombinant protein
T2 sequence (looked up): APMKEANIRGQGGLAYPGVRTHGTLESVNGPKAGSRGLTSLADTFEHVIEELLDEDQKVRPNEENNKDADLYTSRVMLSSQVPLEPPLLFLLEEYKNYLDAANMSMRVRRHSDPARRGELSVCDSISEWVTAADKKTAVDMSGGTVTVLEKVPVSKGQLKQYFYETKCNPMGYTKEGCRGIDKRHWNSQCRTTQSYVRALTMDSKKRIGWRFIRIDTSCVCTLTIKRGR
Kind of test: SPR, Biacore T200, capture method, human proBDNF precursor protein at 0.25-8 nM. The procedure: The affinity and kinetic parameters of the 1D3 and 2H8 monoclonal antibodies were measured by the capture method using the Biacore T200 system (purchased from GE). The operation is referred to the instruction. The adopted concentrations of human proBDNF precursor protein were 0.25nM, 0.5nM, 1nM, 2nM, 4nM and 8nM, respectively. The Biacore T200 evaluation software was used to evaluate the obtained action curve and to calculate the KD value of affinity . FIG. 1A and FIG. 1B respectively show the kinetic curves of monoclonal antibodies 1D3 and 2H8 in the Biacore affinity determination experiment.

Test [2] concerns the target T3, GST-human proBDNF-E5 peptide (human).
T3 construct: not shown: GST (glutathione S-transferase) fusion partner
T3 chain: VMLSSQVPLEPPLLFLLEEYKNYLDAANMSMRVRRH
Kind of test: ELISA on GST fusion proteins.
From the text: as §1

Another test has as its target T4, VP peptide (human, also: biotinylated, position not given here).
T4 construct: Synthetic; also called Biotinylated VP peptide
T4 peptide: VMLSSQVPLEPP
Kind of test: ELISA, biotinylated peptide. An excerpt:
(§2) The E5 peptide was further divided into three equal peptide segments, each comprising 12 amino acids, namely VP peptide ([…], SEQ ID NO: 33), LL peptide ([…], SEQ ID NO: 34), DH Peptide ([…], SEQ ID NO: 35). Biotinylated VP peptide, LL peptide and DH peptide were synthesized in vitro by GL Biochemical (Shanghai) Ltd. and the binding of antibodies was detected by ELISA.

In another test the target is T5, LL peptide (human, also: biotinylated, position not given here).
T5 construct: Synthetic; also called Biotinylated LL peptide
T5 peptide: LLFLLEEYKNYL
Put plainly: ELISA, biotinylated peptide.
From the text: as §2

A further test has as its target T6, DH Peptide (human, also: biotinylated, position not given here).
T6 construct: Synthetic; also called polypeptide DH; Biotinylated DH peptide
T6 peptide: DAANMSMRVRRH
Kind of test: ELISA, biotinylated peptide.
From the text: as §2

The target in test [3] is T7, GST-human proBDNF-E2 peptide (human, UniProt P23560 76-129).
T7 construct: not shown: GST (glutathione S-transferase) fusion partner
T7 sequence: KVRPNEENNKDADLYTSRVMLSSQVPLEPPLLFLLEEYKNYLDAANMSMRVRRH
Kind of test: ELISA on GST fusion proteins.
From the text: as §1

No end group written: not given here.

B1: 2H8 Monoclonal antibody (antibody, V domains shown)
VH: EVQLVETGGGLVQPGGSLRLSCAASGFTFSSYGMHWVRQAPGKGLEWVSVISGSGDSTYYAESVKGRFTISRDNARNTVYLQMNSLRAEDTAVYYCASGILTGYVFDYWGKGTMVTVSS
VL: DVVMTQSPLSLPVTLGQPASISCRSSQSLVSNDGNTYLNWFQQRPGQPPRRLIYMVSKWDSGVPDRFSGSGSGTDFTLRISRVEAEDVGVYYCMQSTHWPPTFGGGTKLEIKR
notes: also called recombinant monoclonal antibody 2H8
Turning to B1, the binding result in the test with GST-huBDNFpro4 is reported as “no binding”; in test [2] it was “binds”; with VP peptide, “no binding”; with LL peptide, “no binding”; with DH Peptide it was “binds”. The same molecule yielded a Kd in test [1] of 1.91 nM. For the same molecule, the koff in test [1] amounted to 0.00594 s⁻¹. For the same molecule, the kon in test [1] came out at 3.1e+06 M⁻¹ s⁻¹.

B2: 1D3 Monoclonal antibody (antibody, V domains shown)
VH: QVQLVESGGGLIQPGGSMRLSCAASGFSLSGYDMHWVRQIAGKGLEWVAGLGMEGDSYYSASVKGRFTISRQDAKNSLYLEMKDLGGGDTAVYYCLRDVHGFDVWGQGTTVTVSS
VL: DVVMTQSPLSLPVTPGEPASISCRSSQSLLYSNGYTYLDWYLQRPGQSPQLLIYMGSNRASGVPDRFSGSGSGTDFTLKISRVEAEDVGVYYCMQALQTPLTFGGGTKLEIKR
notes: also called recombinant monoclonal antibody 1D3; fully human monoclonal antibody 1D3
For B2, the binding result is reported as “no binding” with GST-huBDNFpro4; “binds” in test [3]; “binds” in test [2]; “no binding” in the test with VP peptide; “no binding” with LL peptide; “binds” in the test with DH Peptide.

Values taken from US20220064274A1 (SHANGHAI YILE BIOTECHNOLOGY, published 2022).
